This is an account of results in patent publication US20170173107A1.

Positions of bridges follow the written chain, without caps; N, C: chain ends. Non-standard residues stand in square brackets, D forms with d. ABM2 = diphenyl-cyclohexanol phosphate ester hexanoic acid tag; Trp(1-Me) = Cn1cc(C[C@H](N)C(=O)O)c2ccccc21; NMeI = CC[C@H](C)[C@H](NC)C(=O)O; Sar = CNCC(=O)O Bounds are passed on as bounds.

For assay [1], the target named is plasma proteins of C3-positive serum (C3-depleted serum with 5 µM purified C3 added). The experiment in a line: rapid equilibrium dialysis, 10 µM peptide, C3-positive serum (5 µM C3), 37 °C 24 h, UPLC-HDMS. On the technique in general: In equilibrium dialysis free small molecules cross a membrane that holds back macromolecules.
Assay [2] deals with plasma proteins of C3-depleted serum. The experiment in a line: rapid equilibrium dialysis, 5 µM peptide, C3-depleted serum, 37 °C 24 h, UPLC-HDMS.
Assay [3] addresses plasma proteins of C3-positive serum (C3-depleted serum with 5 µM purified C3 added). The experiment in a line: rapid equilibrium dialysis, 5 µM peptide, C3-positive serum (5 µM C3), 37 °C 24 h, UPLC-HDMS.
The target of assay [4] is plasma proteins of C3-depleted serum. The experiment in a line: rapid equilibrium dialysis, 10 µM peptide, C3-depleted serum, 37 °C 24 h, UPLC-HDMS.

B1: Cp20 (Ac-Ile-[Cys-Val-Trp(Me)-Gln-Asp-Trp-Sar-Ala-His-Arg-Cys]-mIle-NH2) (peptide)
peptide: Ac-ICV[Trp(1-Me)]QDW[Sar]AHRC[NMeI]-NH2
modifications: disulfide 2-12
SMILES: CC[C@H](C)[C@H](NC(C)=O)C(=O)N[C@H]1CSSC[C@@H](C(=O)N(C)[C@H](C(N)=O)[C@@H](C)CC)NC(=O)[C@H](CCCNC(=N)N)NC(=O)[C@H](Cc2c[nH]cn2)NC(=O)[C@H](C)NC(=O)CN(C)C(=O)[C@H](Cc2c[nH]c3ccccc23)NC(=O)[C@H](CC(=O)O)NC(=O)[C@H](CCC(N)=O)NC(=O)[C@H](Cc2cn(C)c3ccccc23)NC(=O)[C@H](C(C)C)NC1=O
In the case of B1, the % bound in assay [1] is 84%; in assay [2] it was 7%; in assay [3] it was more than 99%; in assay [4], 3%.

B2: ABM2-Cp20 (ABM2-Ile-[Cys-Val-Trp(Me)-Gln-Asp-Trp-Sar-Ala-His-Arg-Cys]-mIle-NH2) (peptide)
peptide: ABM2-ICVWQDW[Sar]AHRC[NMeI]-NH2
modifications: disulfide 2-12; not fully specified (residue 4); printed as ABM2-Ile-[Cys-Val-Trp(Me)-Gln-Asp-Trp-Sar-Ala-His-Arg-Cys]-mIle-NH2
As for B2, the % bound in assay [1], in assay [2], in assay [3] and in assay [4] was more than 99% throughout.
